How the values were obtained:
[1] = molecular target: His-tagged C-peptide C37-H6 (C-peptide region of gp41) (Human immunodeficiency virus type 1 group M subtype B, UniProt P04578); conditions: 150 μM C34 added to 16 μM 5-Helix and 30 μM C37-H6
Protocol: The solution was added to 10 ml of Ni-NTA agarose and incubated at room temperature for 10 minutes. After the unbound supernatant was removed, the beads were washed twice with 1 ml TBS and then eluted with 500 mM imidazole. The Ni-bound and unbound samples were run on a 16.5% Tris-Tricine polyacrylamide gel (Biorad) and stained with Gel-code Blue (Pierce).

[2] = system: HIV-1 envelope-mediated membrane fusion (CHO cells expressing gp160 and Tat with HELA cells expressing CD4 and coreceptors); conditions: number of syncytia; Chan et al. 1998; read-out: IC50 of C34 in cell-cell fusion assay; cited from earlier work
[3] = system: HIV-1 envelope-mediated membrane fusion (CHO cells expressing gp160 and Tat with HELA cells expressing CD4 and coreceptors); assay: Cell-cell fusion assay (syncytia formation); format: cell-based; conditions: 200 nM 5-Helix or 6-Helix mixed with C34 at 100, 166, 190 and 210 nM
Protocol: Assays were carried out to assess the ability of 5-Helix to interact with the C-region of gp41 and inhibit function of the fusion protein. This inhibition of membrane fusion by 5-Helix and 6-Helix was assessed using a cell-based assay. Proteins 5-Helix and 6-Helix are serially diluted in modified DMEM media with 5% FCS and aliquoted into slide chambers. HELA cells (4×10^4) expressing CD4 and coreceptors and containing a β-galactosidase gene under the control of the Tat promoter are added. CHO cells (2×10^4) expressing gp160 (precursor protein to gp120/gp41) and Tat are also added. The 400 μl miniculture is incubated at 37° C. for 8 to 24 hours; fused cells (syncytia) will transcribe and translate β-galactosidase. The cells are fixed in gluteraldehyde and exposed to X-gal/Fe solution for one hour. Syncytia that contain β-galactosidase turn blue-green. […]
All data in FIGS. 3A-3C were generated using His-tagged 5-Helix (see Example 1). […] Following two days of incubation at 37° C., the cells were harvested in […] lysis buffer (Luciferase Assay System, Promega), of which […] was analyzed per manufacturer's protocol. The IC50 values were calculated by fitting the 5-Helix titration data to a Langmuir function [normalized luciferase activity=1/(1+[5−Helix]/IC50)].

[4] = molecular target: HIV gp41 (from gp160, strain not stated in the assay text) (HIV-1); assay: cell-based or functional assay

Molecule | Competition of untagged C-peptide for 5-Helix/C37-H6 precipitation (in words) [1] | IC50 [2] [nM] | Syncytia formation in mixing (competition) experiments (in words) [3] | IC50, cell-cell fusion assay [4] [nM]
C34: Peptide corresponding to the C-peptide region of HIV gp41 (W628 to L661); chemically synthesized, no His-tag | substantially reduces the amount of precipitated 5-Helix | 0.55 ± 0.03 | blocks all syncytia formation | 
GGHTTWMEWDREINNYTSLIHSLIEESQNQQEKNEQELLGGHHHHHH (modifications not checked) [His-tagged C-peptide C37-H6] |  |  |  | 1

From patent US20030082525A1, “Five-Helix protein” (priority 1999, published 2003)
